These are literature values, as cited in publication PMC6417862.

This data set deals with muscle actin (Oryctolagus cuniculus) (UniProt P68135).

Consider cofilin (from UniProt Q03048), for which the Kd (in general, the free concentration of one partner at which half of the binding sites on the other are occupied at equilibrium, for simple one-to-one binding) is less than 300 nM.
